# Assay results: article PMC9482650, “Quantitative fragmentomics allow affinity mapping of interactomes” (Nature Communications, 2022)
# T1: DFNB31_2, Q9P202
# T1 sequence (Q9P202 274-371, limits assumed, looked up): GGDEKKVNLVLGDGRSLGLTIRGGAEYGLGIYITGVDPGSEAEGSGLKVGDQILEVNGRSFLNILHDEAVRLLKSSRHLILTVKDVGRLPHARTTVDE
# T2: DLG3_2, Q92796
# T2 sequence (Q92796 221-321, limits assumed, looked up): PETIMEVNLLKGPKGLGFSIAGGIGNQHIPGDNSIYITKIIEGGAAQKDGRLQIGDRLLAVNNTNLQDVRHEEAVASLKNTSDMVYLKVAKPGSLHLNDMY
# T3: DLG3_3, Q92796
# T3 sequence (Q92796 374-475, limits assumed, looked up): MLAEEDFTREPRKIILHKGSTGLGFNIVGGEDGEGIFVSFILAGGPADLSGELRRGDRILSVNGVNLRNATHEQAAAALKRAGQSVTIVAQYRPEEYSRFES
# T4: GRIP1_2, Q9Y3R0
# T4 sequence (Q9Y3R0 145-248, limits assumed, looked up): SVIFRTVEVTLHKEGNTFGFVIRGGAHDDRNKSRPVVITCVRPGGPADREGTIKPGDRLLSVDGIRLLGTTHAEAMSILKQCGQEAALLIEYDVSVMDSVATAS
# T5: GRIP1_4, Q9Y3R0
# T5 sequence (Q9Y3R0 467-571, limits assumed, looked up): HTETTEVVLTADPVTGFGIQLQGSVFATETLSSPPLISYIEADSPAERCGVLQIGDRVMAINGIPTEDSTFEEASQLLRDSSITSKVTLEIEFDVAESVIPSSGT
# T6: HTRA3, P83110
# T6 sequence (P83110 354-453, limits assumed, looked up): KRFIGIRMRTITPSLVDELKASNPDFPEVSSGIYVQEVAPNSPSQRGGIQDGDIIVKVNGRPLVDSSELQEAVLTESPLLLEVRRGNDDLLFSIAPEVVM
# T7: LIN7B, Q9HAP6
# T7 sequence (Q9HAP6 88-185, limits assumed, looked up): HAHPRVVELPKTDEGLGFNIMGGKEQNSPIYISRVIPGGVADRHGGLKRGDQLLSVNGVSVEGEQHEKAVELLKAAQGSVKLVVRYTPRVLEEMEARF
# T8: MPDZ_10, O75970
# T8 sequence (O75970 1624-1722, limits assumed, looked up): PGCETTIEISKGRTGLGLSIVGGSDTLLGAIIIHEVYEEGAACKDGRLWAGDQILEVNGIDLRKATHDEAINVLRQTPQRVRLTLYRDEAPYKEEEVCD
# T9: PARD3B_1, Q8TEW8
# T9 sequence (Q8TEW8 196-299, limits assumed, looked up): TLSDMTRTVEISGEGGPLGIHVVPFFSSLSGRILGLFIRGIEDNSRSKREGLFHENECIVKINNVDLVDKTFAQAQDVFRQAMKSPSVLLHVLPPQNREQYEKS
# T10: PTPN13_1, Q12923
# T10 sequence (Q12923 1088-1188, limits assumed, looked up): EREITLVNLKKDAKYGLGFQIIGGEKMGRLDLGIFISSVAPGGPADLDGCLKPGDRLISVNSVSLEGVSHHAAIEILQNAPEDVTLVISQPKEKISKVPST
# T11: RHPN1, Q8TCX5
# T11 sequence (Q8TCX5 508-602, limits assumed, looked up): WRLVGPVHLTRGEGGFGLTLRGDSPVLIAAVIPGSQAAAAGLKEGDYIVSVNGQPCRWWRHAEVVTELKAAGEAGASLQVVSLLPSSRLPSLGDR
# T12: SYNJ2BP, P57105
# T12 sequence (P57105 8-110, limits assumed, looked up): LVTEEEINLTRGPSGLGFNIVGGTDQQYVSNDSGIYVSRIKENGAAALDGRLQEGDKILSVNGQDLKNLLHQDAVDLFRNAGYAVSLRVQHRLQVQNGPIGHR
# Target: T1, DFNB31_2, Q9P202
# Test: holdup assay
# Set-up: key: below the threshold = too weak to quantify, mostly under pKd 3.1 to 4
# Conditions: plain residues with an end cap or a label only (N-terminal biotin on a linker: ado-ado)
row,Binder,pKd
1,"NNMAFETTHF [SLC5A12, Q1EHB4]",below the threshold

# Target: DLG2_2, Q15700
# Test: holdup assay
# Set-up: key: below the threshold = too weak to quantify, mostly under pKd 3.1 to 4
# Conditions: plain residues with an end cap or a label only (N-terminal biotin on a linker: ado-ado)
# DLG2_2, Q15700, sequence (Q15700 189-283): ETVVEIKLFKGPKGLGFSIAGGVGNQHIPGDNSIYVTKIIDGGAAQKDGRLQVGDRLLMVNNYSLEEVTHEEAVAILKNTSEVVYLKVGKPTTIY
row,Binder,pKd
1,"NNMAFETTHF [SLC5A12, Q1EHB4]",below the threshold

# Target: T2, DLG3_2, Q92796
# Test: holdup assay
# Set-up: key: below the threshold = too weak to quantify, mostly under pKd 3.1 to 4
# Conditions: plain residues with an end cap or a label only (N-terminal biotin on a linker: ado-ado)
row,Binder,pKd
1,"NNMAFETTHF [SLC5A12, Q1EHB4]",4.08

# Target: T3, DLG3_3, Q92796
# Test: holdup assay
# Set-up: key: below the threshold = too weak to quantify, mostly under pKd 3.1 to 4
# Conditions: plain residues with an end cap or a label only (N-terminal biotin on a linker: ado-ado)
row,Binder,pKd
1,"NNMAFETTHF [SLC5A12, Q1EHB4]",below the threshold

# Target: DLG4_2, P78352
# Test: holdup assay
# Set-up: key: below the threshold = too weak to quantify, mostly under pKd 3.1 to 4
# Conditions: plain residues with an end cap or a label only (N-terminal biotin on a linker: ado-ado)
# DLG4_2, P78352, sequence (P78352 155-259): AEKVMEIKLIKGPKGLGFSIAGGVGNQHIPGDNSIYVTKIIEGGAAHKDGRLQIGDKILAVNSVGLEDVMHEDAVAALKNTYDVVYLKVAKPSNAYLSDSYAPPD
row,Binder,pKd
1,"NNMAFETTHF [SLC5A12, Q1EHB4]",below the threshold

# Target: GORASP2, Q9H8Y8
# Test: holdup assay
# Set-up: key: below the threshold = too weak to quantify, mostly under pKd 3.1 to 4
# Conditions: plain residues with an end cap or a label only (N-terminal biotin on a linker: ado-ado)
row,Binder,pKd
1,"NNMAFETTHF [SLC5A12, Q1EHB4]",below the threshold

# Target: T4, GRIP1_2, Q9Y3R0
# Test: holdup assay
# Set-up: key: below the threshold = too weak to quantify, mostly under pKd 3.1 to 4
# Conditions: plain residues with an end cap or a label only (N-terminal biotin on a linker: ado-ado)
row,Binder,pKd
1,"NNMAFETTHF [SLC5A12, Q1EHB4]",below the threshold

# Target: T5, GRIP1_4, Q9Y3R0
# Test: holdup assay
# Set-up: key: below the threshold = too weak to quantify, mostly under pKd 3.1 to 4
# Conditions: plain residues with an end cap or a label only (N-terminal biotin on a linker: ado-ado)
row,Binder,pKd
1,"NNMAFETTHF [SLC5A12, Q1EHB4]",below the threshold

# Target: HTRA1, Q92743
# Test: holdup assay
# Set-up: key: below the threshold = too weak to quantify, mostly under pKd 3.1 to 4
# Conditions: plain residues with an end cap or a label only (N-terminal biotin on a linker: ado-ado)
# HTRA1, Q92743, sequence (Q92743 360-477): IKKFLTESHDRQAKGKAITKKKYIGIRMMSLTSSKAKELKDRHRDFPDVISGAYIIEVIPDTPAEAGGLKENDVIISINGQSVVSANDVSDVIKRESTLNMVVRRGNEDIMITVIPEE
row,Binder,pKd
1,"NNMAFETTHF [SLC5A12, Q1EHB4]",3.62

# Target: T6, HTRA3, P83110
# Test: holdup assay
# Set-up: key: below the threshold = too weak to quantify, mostly under pKd 3.1 to 4
# Conditions: plain residues with an end cap or a label only (N-terminal biotin on a linker: ado-ado)
row,Binder,pKd
1,"NNMAFETTHF [SLC5A12, Q1EHB4]",below the threshold

# Target: IL16_1, Q14005
# Test: holdup assay
# Set-up: key: below the threshold = too weak to quantify, mostly under pKd 3.1 to 4
# Conditions: plain residues with an end cap or a label only (N-terminal biotin on a linker: ado-ado)
# IL16_1, Q14005, sequence (Q14005 210-306): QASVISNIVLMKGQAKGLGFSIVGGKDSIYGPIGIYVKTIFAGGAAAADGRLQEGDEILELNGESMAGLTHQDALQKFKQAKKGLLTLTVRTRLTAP
row,Binder,pKd
1,"NNMAFETTHF [SLC5A12, Q1EHB4]",below the threshold

# Target: Inadl_10, Q8NI35
# Test: holdup assay
# Set-up: key: below the threshold = too weak to quantify, mostly under pKd 3.1 to 4
# Conditions: plain residues with an end cap or a label only (N-terminal biotin on a linker: ado-ado)
# Inadl_10, Q8NI35, sequence (Q8NI35 1673-1763): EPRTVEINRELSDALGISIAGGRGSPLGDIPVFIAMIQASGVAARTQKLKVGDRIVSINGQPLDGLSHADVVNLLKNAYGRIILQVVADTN
row,Binder,pKd
1,"NNMAFETTHF [SLC5A12, Q1EHB4]",below the threshold

# Target: Inadl_5, Q8NI35
# Test: holdup assay
# Set-up: key: below the threshold = too weak to quantify, mostly under pKd 3.1 to 4
# Conditions: plain residues with an end cap or a label only (N-terminal biotin on a linker: ado-ado)
# Inadl_5, Q8NI35, sequence (Q8NI35 673-780): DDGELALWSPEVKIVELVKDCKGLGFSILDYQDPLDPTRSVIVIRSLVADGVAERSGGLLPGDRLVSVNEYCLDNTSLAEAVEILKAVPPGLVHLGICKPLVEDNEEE
row,Binder,pKd
1,"NNMAFETTHF [SLC5A12, Q1EHB4]",below the threshold

# Target: Inadl_9, Q8NI35
# Test: holdup assay
# Set-up: key: below the threshold = too weak to quantify, mostly under pKd 3.1 to 4
# Conditions: plain residues with an end cap or a label only (N-terminal biotin on a linker: ado-ado)
# Inadl_9, Q8NI35, sequence (Q8NI35 1530-1615): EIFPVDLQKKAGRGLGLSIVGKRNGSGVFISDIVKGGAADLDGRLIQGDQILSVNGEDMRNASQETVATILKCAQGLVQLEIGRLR
row,Binder,pKd
1,"NNMAFETTHF [SLC5A12, Q1EHB4]",below the threshold

# Target: LAP2, Q96RT1
# Test: holdup assay
# Set-up: key: below the threshold = too weak to quantify, mostly under pKd 3.1 to 4
# Conditions: plain residues with an end cap or a label only (N-terminal biotin on a linker: ado-ado)
# LAP2, Q96RT1, sequence (Q96RT1 other isoform, or with tags, fused parts or gaps): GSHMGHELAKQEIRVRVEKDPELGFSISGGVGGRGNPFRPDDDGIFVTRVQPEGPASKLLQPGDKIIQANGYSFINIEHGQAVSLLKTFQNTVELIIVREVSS
row,Binder,pKd
1,"NNMAFETTHF [SLC5A12, Q1EHB4]",below the threshold

# Target: T7, LIN7B, Q9HAP6
# Test: holdup assay
# Set-up: key: below the threshold = too weak to quantify, mostly under pKd 3.1 to 4
# Conditions: plain residues with an end cap or a label only (N-terminal biotin on a linker: ado-ado)
row,Binder,pKd
1,"NNMAFETTHF [SLC5A12, Q1EHB4]",3.62

# Target: T8, MPDZ_10, O75970
# Test: holdup assay
# Set-up: key: below the threshold = too weak to quantify, mostly under pKd 3.1 to 4
# Conditions: plain residues with an end cap or a label only (N-terminal biotin on a linker: ado-ado)
row,Binder,pKd
1,"NNMAFETTHF [SLC5A12, Q1EHB4]",below the threshold

# Target: NHERF4_4, Q86UT5
# Test: holdup assay
# Set-up: key: below the threshold = too weak to quantify, mostly under pKd 3.1 to 4
# Conditions: plain residues with an end cap or a label only (N-terminal biotin on a linker: ado-ado)
# NHERF4_4, Q86UT5, sequence (Q86UT5 464-550): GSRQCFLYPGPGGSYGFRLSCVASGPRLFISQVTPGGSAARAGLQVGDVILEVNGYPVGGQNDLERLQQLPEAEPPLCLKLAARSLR
row,Binder,pKd
1,"NNMAFETTHF [SLC5A12, Q1EHB4]",below the threshold

# Target: NOS1, P29475
# Test: holdup assay
# Set-up: key: below the threshold = too weak to quantify, mostly under pKd 3.1 to 4
# Conditions: plain residues with an end cap or a label only (N-terminal biotin on a linker: ado-ado)
# NOS1, P29475, sequence (P29475 9-101): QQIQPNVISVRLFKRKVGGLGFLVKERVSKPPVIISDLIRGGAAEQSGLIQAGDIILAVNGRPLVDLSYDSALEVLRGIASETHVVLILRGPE
row,Binder,pKd
1,"NNMAFETTHF [SLC5A12, Q1EHB4]",below the threshold

# Target: T9, PARD3B_1, Q8TEW8
# Test: holdup assay
# Set-up: key: below the threshold = too weak to quantify, mostly under pKd 3.1 to 4
# Conditions: plain residues with an end cap or a label only (N-terminal biotin on a linker: ado-ado)
row,Binder,pKd
1,"NNMAFETTHF [SLC5A12, Q1EHB4]",4.49

# Target: T10, PTPN13_1, Q12923
# Test: holdup assay
# Set-up: key: below the threshold = too weak to quantify, mostly under pKd 3.1 to 4
# Conditions: plain residues with an end cap or a label only (N-terminal biotin on a linker: ado-ado)
row,Binder,pKd
1,"NNMAFETTHF [SLC5A12, Q1EHB4]",below the threshold

# Target: T11, RHPN1, Q8TCX5
# Test: holdup assay
# Set-up: key: below the threshold = too weak to quantify, mostly under pKd 3.1 to 4
# Conditions: plain residues with an end cap or a label only (N-terminal biotin on a linker: ado-ado)
row,Binder,pKd
1,"NNMAFETTHF [SLC5A12, Q1EHB4]",4.08

# Target: T12, SYNJ2BP, P57105
# Test: holdup assay
# Set-up: key: below the threshold = too weak to quantify, mostly under pKd 3.1 to 4
# Conditions: plain residues with an end cap or a label only (N-terminal biotin on a linker: ado-ado)
row,Binder,pKd
1,"NNMAFETTHF [SLC5A12, Q1EHB4]",below the threshold

# Target: TJP1_3, Q07157
# Test: holdup assay
# Set-up: key: below the threshold = too weak to quantify, mostly under pKd 3.1 to 4
# Conditions: plain residues with an end cap or a label only (N-terminal biotin on a linker: ado-ado)
# TJP1_3, Q07157, sequence (Q07157 416-512): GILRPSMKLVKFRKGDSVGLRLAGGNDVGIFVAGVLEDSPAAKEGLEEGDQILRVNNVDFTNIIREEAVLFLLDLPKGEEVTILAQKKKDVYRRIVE
row,Binder,pKd
1,"NNMAFETTHF [SLC5A12, Q1EHB4]",below the threshold

# Target: TJP2_1, Q9UDY2
# Test: holdup assay
# Set-up: key: below the threshold = too weak to quantify, mostly under pKd 3.1 to 4
# Conditions: plain residues with an end cap or a label only (N-terminal biotin on a linker: ado-ado)
# TJP2_1, Q9UDY2, sequence (Q9UDY2 24-128): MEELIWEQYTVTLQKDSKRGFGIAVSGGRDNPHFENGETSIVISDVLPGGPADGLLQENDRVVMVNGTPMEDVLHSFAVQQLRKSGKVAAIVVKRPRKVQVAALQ
row,Binder,pKd
1,"NNMAFETTHF [SLC5A12, Q1EHB4]",below the threshold
